# From PMC6789141, “ZC3H18 specifically binds and activates the BRCA1 promoter to facilitate homologous recombination in ovarian cancer”
# T1: SFB-ZC3H18 (human, UniProt Q86VM9 1-953)
# T1 sequence: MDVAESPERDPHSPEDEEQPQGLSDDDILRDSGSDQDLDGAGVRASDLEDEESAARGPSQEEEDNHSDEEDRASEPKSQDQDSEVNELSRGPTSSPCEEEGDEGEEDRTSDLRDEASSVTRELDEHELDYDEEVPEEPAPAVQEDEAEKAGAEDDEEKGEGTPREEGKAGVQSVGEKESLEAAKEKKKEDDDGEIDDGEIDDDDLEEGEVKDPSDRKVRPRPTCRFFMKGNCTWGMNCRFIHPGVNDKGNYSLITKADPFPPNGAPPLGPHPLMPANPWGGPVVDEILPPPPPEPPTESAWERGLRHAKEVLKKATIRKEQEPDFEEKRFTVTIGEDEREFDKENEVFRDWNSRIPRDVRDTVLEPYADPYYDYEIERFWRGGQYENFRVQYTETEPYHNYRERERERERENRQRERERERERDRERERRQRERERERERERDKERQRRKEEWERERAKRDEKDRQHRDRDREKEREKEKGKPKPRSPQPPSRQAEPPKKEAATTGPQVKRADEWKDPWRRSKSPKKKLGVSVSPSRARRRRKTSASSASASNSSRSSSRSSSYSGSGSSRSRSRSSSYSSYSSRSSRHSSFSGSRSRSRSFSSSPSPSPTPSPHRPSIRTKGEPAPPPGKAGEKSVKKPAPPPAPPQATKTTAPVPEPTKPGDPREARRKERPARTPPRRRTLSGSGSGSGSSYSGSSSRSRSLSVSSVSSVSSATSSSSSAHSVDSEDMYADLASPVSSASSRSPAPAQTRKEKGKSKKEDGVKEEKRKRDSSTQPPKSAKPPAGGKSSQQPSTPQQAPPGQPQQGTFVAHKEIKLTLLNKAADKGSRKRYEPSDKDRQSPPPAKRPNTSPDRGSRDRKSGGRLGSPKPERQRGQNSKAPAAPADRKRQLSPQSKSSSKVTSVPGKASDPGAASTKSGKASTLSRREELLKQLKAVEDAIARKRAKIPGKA
# Molecular target: T1, SFB-ZC3H18
# Experiment: EMSA; cold competition and anti-S-tag supershift confirm; EMSA: 20 mM Tris-HCl pH 8.0, 50 mM NaCl, 1 mM MgCl2, 5 mg/ml BSA, 1 mM DTT, 20 min at room temperature; 5% native gel, 0.25x TBE, 4 °C
# Settings: protein: recombinant; C-terminal 6xHis; label: 32P 5' end; duplex of complementary 50-mers
binder,measurement,value
E2FA/BWT (dsDNA) DNA 1: TAGCCCCTTGGTTTCCGTGGCAACGGAAAAGCGCGGGAATTACAGATAAA DNA 2: TTTATCTGTAATTCCCGCGCTTTTCCGTTGCCACGGAAACCAAGGGGCTA,binding result,binds
